Consider one molecule from publication PMC4244909.

As usually defined, the Kd is the concentration at which binding is half-saturated. High values mean weaker binding, low ones tighter binding.

The target of this test is microtubules (polymers of α/β-tubulin) of the co-sedimentation and negative-stain EM experiments. Briefly: co-sedimentation.
microtubules (polymers of α/β-tubulin) of the co-sedimentation and negative-stain EM experiments, sequence (P68363 whole entry, chain 1 of 2): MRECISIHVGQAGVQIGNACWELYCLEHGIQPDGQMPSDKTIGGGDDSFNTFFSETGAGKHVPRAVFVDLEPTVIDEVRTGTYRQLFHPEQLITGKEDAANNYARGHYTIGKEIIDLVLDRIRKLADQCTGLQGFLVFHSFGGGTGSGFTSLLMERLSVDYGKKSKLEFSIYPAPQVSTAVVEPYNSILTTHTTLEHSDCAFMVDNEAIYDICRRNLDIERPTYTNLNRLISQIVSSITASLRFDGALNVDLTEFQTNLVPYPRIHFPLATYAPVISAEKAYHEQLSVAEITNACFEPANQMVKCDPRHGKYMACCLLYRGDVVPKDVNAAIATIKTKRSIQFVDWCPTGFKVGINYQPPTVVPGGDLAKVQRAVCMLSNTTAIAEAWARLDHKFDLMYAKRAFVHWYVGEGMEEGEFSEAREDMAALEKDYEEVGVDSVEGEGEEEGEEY
microtubules (polymers of α/β-tubulin) of the co-sedimentation and negative-stain EM experiments, sequence (A8K068 whole entry, chain 2 of 2, further chain): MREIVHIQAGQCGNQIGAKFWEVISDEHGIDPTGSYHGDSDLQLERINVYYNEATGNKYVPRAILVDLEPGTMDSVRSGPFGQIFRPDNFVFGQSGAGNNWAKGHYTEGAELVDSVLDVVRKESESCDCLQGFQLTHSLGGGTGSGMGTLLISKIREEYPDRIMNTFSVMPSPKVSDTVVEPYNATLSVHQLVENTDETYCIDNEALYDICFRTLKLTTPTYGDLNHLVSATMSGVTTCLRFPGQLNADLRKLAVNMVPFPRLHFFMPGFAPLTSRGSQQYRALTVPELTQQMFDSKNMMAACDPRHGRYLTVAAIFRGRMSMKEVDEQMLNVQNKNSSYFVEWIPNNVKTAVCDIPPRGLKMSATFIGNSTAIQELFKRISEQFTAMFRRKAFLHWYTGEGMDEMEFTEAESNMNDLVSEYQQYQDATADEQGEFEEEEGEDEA

B1: Hice1-MTBR (Hice1 microtubule-binding region, a.a. 1–141), Q9BT25 1-141 (domain or fragment)
chain: MADSSGRGAGKPATGPTNSSSAKKKDKRVQGGRVIESRYLQYEKKTTQKAPAGDGSQTRGKMSEGGRKSSLLQKSKADSSGVGKGDLQSTLLEGHGTAPPDLDLSAINDKSIVKKTPQLAKTISKKPESTSFSAPRKKSPD
Take B1: the Kd was found to be 9.33 µM.
